Measurements as given in patent publication US20230002480A1.

Columns and labels:
Experiment in all cases: cell-based or functional assay
[1] = target: HIV-1 Env of pseudovirus CNE17 (HIV-1)
[2] = target: HIV-1 Env of pseudovirus BF1266.431a (HIV-1)
[3] = target: HIV-1 Env of pseudovirus RHPA4259.7 (HIV-1)
[4] = target: HIV-1 Env of pseudovirus C4118.c09 (HIV-1)
[5] = target: HIV-1 Env of pseudovirus C2101.c01 (HIV-1)
[6] = target: HIV-1 Env of pseudovirus 6535.3 (HIV-1)
[7] = target: HIV-1 Env of pseudovirus WITO4160.33 (HIV-1)
[8] = target: HIV-1 Env of pseudovirus 191955_A11 (HIV-1)
[9] = target: HIV-1 Env of pseudovirus 249M B10 (HIV-1)
[10] = target: HIV-1 Env of pseudovirus WEAU_d15_410_787 (HIV-1)
[11] = target: HIV-1 Env of pseudovirus R3265.c06 (HIV-1)
[12] = target: HIV-1 Env of pseudovirus 62357_14_D3_4589 (HIV-1)
[13] = target: HIV-1 Env of pseudovirus X2088_c9 (HIV-1)
[14] = target: HIV-1 Env of pseudovirus 1006_11_C3_1601 (HIV-1)
[15] = target: HIV-1 Env of pseudovirus Du172.17 (HIV-1)
[16] = target: HIV-1 Env of pseudovirus 6244_13_B5_4576 (HIV-1)
[17] = target: HIV-1 Env of pseudovirus CAP45.2.00.G3 (HIV-1)
[18] = target: HIV-1 Env of pseudovirus BJOX009000.02.4 (HIV-1)
[19] = target: HIV-1 Env of pseudovirus Ce704809221_1B3 (HIV-1)
[20] = target: HIV-1 Env of pseudovirus 191084 B7-19 (HIV-1)
[21] = target: HIV-1 Env of pseudovirus Q259.d2.17 (HIV-1)
[22] = target: HIV-1 Env of pseudovirus 7030102001E5(Rev-) (HIV-1)
[23] = target: HIV-1 Env of pseudovirus 1394C9G1(Rev-) (HIV-1)
[24] = target: HIV-1 Env of pseudovirus Ce2060_G9 (HIV-1)
[25] = target: HIV-1 Env of pseudovirus 1054_07_TC4_1499 (HIV-1)
[26] = target: HIV-1 Env of pseudovirus HIV-16845-2.22 (HIV-1)
[27] = target: HIV-1 Env of pseudovirus TRO.11 (HIV-1)
[28] = target: HIV-1 Env of pseudovirus R1166.c01 (HIV-1)
[29] = target: HIV-1 Env of pseudovirus Ce1172_H1 (HIV-1)
[30] = target: HIV-1 Env of pseudovirus 235-47 (HIV-1)
[31] = target: HIV-1 Env of pseudovirus CNE30 (HIV-1)
[32] = target: HIV-1 Env of pseudovirus CNE58 (HIV-1)
[33] = target: HIV-1 Env of pseudovirus T250-4 (HIV-1)
[34] = target: HIV-1 Env of pseudovirus QH0692.42 (HIV-1)

N49P7.1 (antibody)
neutralization IC50 [1]: 0.254 µg/mL | neutralization IC80 [1]: 0.86 µg/mL | neutralization MPI [1]: 100 | neutralization IC50 [2]: 0.033 µg/mL | neutralization IC80 [2]: 0.11 µg/mL | neutralization MPI [2]: 100 | neutralization IC50 [3]: 0.108 µg/mL | neutralization IC80 [3]: 0.292 µg/mL | neutralization MPI [3]: 100 | neutralization IC50 [4]: 0.048 µg/mL | neutralization IC80 [4]: 0.216 µg/mL | neutralization MPI [4]: 100 | neutralization IC50 [5]: 0.076 µg/mL | neutralization IC80 [5]: 0.425 µg/mL | neutralization MPI [5]: 100 | neutralization IC50 [6]: 0.224 µg/mL | neutralization IC80 [6]: 0.715 µg/mL | neutralization MPI [6]: 100 | neutralization IC50 [7]: 0.121 µg/mL | neutralization IC80 [7]: 0.326 µg/mL | neutralization MPI [7]: 100 | neutralization IC50 [8]: 1.99 µg/mL | neutralization IC80 [8]: 10.1 µg/mL | neutralization MPI [8]: 98 | neutralization IC50 [9]: 0.053 µg/mL | neutralization IC80 [9]: 0.225 µg/mL | neutralization MPI [9]: 100 | neutralization IC50 [10]: 0.058 µg/mL | neutralization IC80 [10]: 0.142 µg/mL | neutralization MPI [10]: 100 | neutralization IC50 [11]: 0.059 µg/mL | neutralization IC80 [11]: 0.328 µg/mL | neutralization MPI [11]: 100 | neutralization IC50 [12]: 0.028 µg/mL | neutralization IC80 [12]: 0.15 µg/mL | neutralization MPI [12]: 100 | neutralization IC50 [13]: 0.199 µg/mL | neutralization IC80 [13]: 0.726 µg/mL | neutralization MPI [13]: 100 | neutralization IC50 [14]: 0.061 µg/mL | neutralization IC80 [14]: 0.193 µg/mL | neutralization MPI [14]: 100 | neutralization IC50 [15]: 0.185 µg/mL | neutralization IC80 [15]: 0.748 µg/mL | neutralization MPI [15]: 100 | neutralization IC50 [16]: 0.184 µg/mL | neutralization IC80 [16]: 0.493 µg/mL | neutralization MPI [16]: 100 | neutralization IC50 [17]: 0.086 µg/mL | neutralization IC80 [17]: 0.567 µg/mL | neutralization MPI [17]: 100 | neutralization IC50 [18]: 0.219 µg/mL | neutralization IC80 [18]: 0.756 µg/mL | neutralization MPI [18]: 100 | neutralization IC50 [19]: 0.211 µg/mL | neutralization IC80 [19]: 1.35 µg/mL | neutralization MPI [19]: 100 | neutralization IC50 [20]: 0.069 µg/mL | neutralization IC80 [20]: 0.2 µg/mL | neutralization MPI [20]: 100 | neutralization IC50 [21]: 0.505 µg/mL | neutralization IC80 [21]: 4.23 µg/mL | neutralization MPI [21]: 97 | neutralization IC50 [22]: 0.11 µg/mL | neutralization IC80 [22]: 0.498 µg/mL | neutralization MPI [22]: 100 | neutralization IC50 [23]: 4.37 µg/mL | neutralization IC80 [23]: 30.9 µg/mL | neutralization MPI [23]: 88 | neutralization IC50 [24]: 0.473 µg/mL | neutralization IC80 [24]: 2.41 µg/mL | neutralization MPI [24]: 100 | neutralization IC50 [25]: 0.627 µg/mL | neutralization IC80 [25]: 2.98 µg/mL | neutralization MPI [25]: 100 | neutralization IC50 [26]: 1.07 µg/mL | neutralization IC80 [26]: 5.4 µg/mL | neutralization MPI [26]: 100 | neutralization IC50 [27]: 0.055 µg/mL | neutralization IC80 [27]: 0.191 µg/mL | neutralization MPI [27]: 100 | neutralization IC50 [28]: 0.136 µg/mL | neutralization IC80 [28]: 0.461 µg/mL | neutralization MPI [28]: 100 | neutralization IC50 [29]: 17.1 µg/mL | neutralization IC80 [29]: > 50 µg/mL | neutralization MPI [29]: 78 | neutralization IC50 [30]: 0.078 µg/mL | neutralization IC80 [30]: 0.419 µg/mL | neutralization MPI [30]: 97 | neutralization IC50 [31]: 0.307 µg/mL | neutralization IC80 [31]: 1.01 µg/mL | neutralization MPI [31]: 100 | neutralization IC50 [32]: 0.049 µg/mL | neutralization IC80 [32]: 0.107 µg/mL | neutralization MPI [32]: 100 | neutralization IC50 [33]: 2.27 µg/mL | neutralization IC80 [33]: 24.7 µg/mL | neutralization MPI [33]: 89 | neutralization IC50 [34]: 0.764 µg/mL | neutralization IC80 [34]: 2.71 µg/mL | neutralization MPI [34]: 100
